# According to patent US20230129812A1 (ACCELERON PHARMA, published 2023):
# Like-named read-outs stand apart in the source and are kept apart here.
# T1: Soluble ActRIIB-Fc +15tail (Homo sapiens (Human), UniProt Q13705 19-134)
# T1 construct: not shown: linker and Fc
# T1 sequence (looked up): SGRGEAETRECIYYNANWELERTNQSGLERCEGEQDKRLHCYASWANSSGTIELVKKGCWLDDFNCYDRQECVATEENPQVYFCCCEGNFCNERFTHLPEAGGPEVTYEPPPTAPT
# T2: activin A (UniProt P08476 311-426)
# T2 construct: also called ActA
# T2 sequence (looked up): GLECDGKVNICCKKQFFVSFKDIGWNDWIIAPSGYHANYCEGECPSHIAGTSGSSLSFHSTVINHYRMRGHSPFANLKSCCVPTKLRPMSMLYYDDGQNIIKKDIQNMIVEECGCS
# T3: activin B (UniProt P09529 293-407)
# T3 sequence (looked up): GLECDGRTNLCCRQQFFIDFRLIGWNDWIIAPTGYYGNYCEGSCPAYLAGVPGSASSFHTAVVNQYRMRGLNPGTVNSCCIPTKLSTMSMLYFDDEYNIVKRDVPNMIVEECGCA
# T4: BMP10 (UniProt O95393 317-424)
# T4 sequence (looked up): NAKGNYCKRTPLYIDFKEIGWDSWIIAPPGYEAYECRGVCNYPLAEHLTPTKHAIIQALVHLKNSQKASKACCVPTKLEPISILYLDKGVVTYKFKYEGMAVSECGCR
# T5: BMP6 (UniProt P22004 375-513, limits assumed)
# T5 sequence (looked up): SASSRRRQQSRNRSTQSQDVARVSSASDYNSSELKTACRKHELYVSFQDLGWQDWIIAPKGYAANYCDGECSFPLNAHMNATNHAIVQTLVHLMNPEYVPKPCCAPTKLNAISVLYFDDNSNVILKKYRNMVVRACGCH
# T6: activin AC (UniProt P08476 311-426; P55103 237-352)
# T6 sequence (looked up) 1: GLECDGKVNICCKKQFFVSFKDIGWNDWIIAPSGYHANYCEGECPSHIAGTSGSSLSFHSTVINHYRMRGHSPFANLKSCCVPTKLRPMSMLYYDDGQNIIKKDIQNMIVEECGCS
# T6 sequence (looked up) 2: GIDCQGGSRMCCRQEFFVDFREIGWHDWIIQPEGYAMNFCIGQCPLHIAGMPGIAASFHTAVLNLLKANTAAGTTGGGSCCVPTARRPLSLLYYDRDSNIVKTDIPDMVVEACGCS
# T7: BMP7 (UniProt P18075 293-431)
# T7 sequence (looked up): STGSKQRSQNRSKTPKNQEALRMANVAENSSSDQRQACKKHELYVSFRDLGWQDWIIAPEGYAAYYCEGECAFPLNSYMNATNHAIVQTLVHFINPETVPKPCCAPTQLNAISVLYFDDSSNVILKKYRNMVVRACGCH
# T8: activin AB (UniProt P08476 311-426; P09529 293-407)
# T8 sequence (looked up) 1: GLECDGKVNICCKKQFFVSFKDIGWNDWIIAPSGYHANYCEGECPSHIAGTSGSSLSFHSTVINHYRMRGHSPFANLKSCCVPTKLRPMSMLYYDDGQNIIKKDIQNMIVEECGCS
# T8 sequence (looked up) 2: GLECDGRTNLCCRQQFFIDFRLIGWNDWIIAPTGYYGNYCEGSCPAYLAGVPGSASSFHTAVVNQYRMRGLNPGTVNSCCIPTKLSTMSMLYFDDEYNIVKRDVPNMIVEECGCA
# T9: GDF8 (UniProt O14793 267-375)
# T9 construct: also called myostatin
# T9 sequence (looked up): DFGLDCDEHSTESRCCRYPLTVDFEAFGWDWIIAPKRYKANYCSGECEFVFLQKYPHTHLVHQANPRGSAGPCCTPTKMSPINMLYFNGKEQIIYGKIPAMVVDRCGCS
# B1: GDF11 (ligand, UniProt O95390 299-407, looked up)
# chain: NLGLDCDEHSSESRCCRYPLTVDFEAFGWDWIIAPKRYKANYCSGQCEYMFMQKYPHTHLVQQANPRGSAGPCCTPTKMSPINMLYFNDKQQIIYGKIPGMVVDRCGCS
# notes: also called BMP11
# Experiments:
# [1] = molecular target: T1, Soluble ActRIIB-Fc +15tail; assay: SPR (Biacore); ligand coupled, receptor flowed over (as reported in WO2006/012627)
# Excerpt: Other variants have been generated and tested, as reported in WO2006/012627 (incorporated herein by reference in its entirety). See, e.g., pp. 59-60, using ligands coupled to the device and flowing receptor over the coupled ligands. […] Table 11 showing data with respect to these variants is reproduced below: […]
# ActRIIA-mFc = molecular target: T10, ActRIIA-mFc (human, UniProt P27037 21-135); assay: SPR (Biacore); ligand amine-coupled to CM5 chip, receptor-Fc injected
# T10 construct: not shown: minimal linker and mouse Fc domain
# GDF11 [2] = molecular target: B1; assay: SPR (Biacore); receptor-Fc captured by anti-Fc antibody, ligand injected; † Very low signal
# Description: (§1) A Biacore™-based binding assay was used to compare ligand binding selectivity of the ActRIIA-Fc:ALK4-Fc heterodimeric complex described above with that of ActRIIA-Fc and ALK4-Fc homodimeric complexes. The ActRIIA-Fc:ALK4-Fc heterodimer, ActRIIA-Fc homodimer, and ALK4-Fc homodimer were independently captured onto the system using an anti-Fc antibody. Ligands were injected and allowed to flow over the captured receptor protein. Results are summarized in Table 14 below, in which ligand off-rates (kd) most indicative of effective ligand traps are denoted in bold.
# GDF11 [3] = molecular target: B1; assay: SPR (Biacore); receptor-Fc captured by anti-Fc antibody, ligand injected
# Description: (§2) A Biacore™-based binding assay was used to compare ligand binding selectivity of the ALK4-Fc:ActRIIB-Fc heterodimeric complex described above with that of ActRIIB-Fc and ALK4-Fc homodimer complexes. The ALK4-Fc:ActRIeB-Fc heterodimer, […], and ALK4-Fc homodimer were independently captured onto the system using an anti-Fc antibody. Ligands were injected and allowed to flow over the captured receptor protein. Results are summarized in Table 13 below, in which ligand off-rates (kd) most indicative of effective polypeptides are denoted in bold.
# activin A [4] = molecular target: T2, activin A; assay: as above
# Description: as §2
# activin B = molecular target: T3, activin B; assay: as above
# Description: as §2
# GDF11 [5] = molecular target: B1; assay: SPR (Biacore); receptor-Fc captured by anti-Fc antibody, ligand injected; † Very low signal; remark: listed apart in the source
# Description: as §1
# GDF11 [6] = molecular target: B1; assay: SPR (Biacore); receptor-Fc captured by anti-Fc antibody, ligand injected; remark: listed apart in the source
# Description: as §1
# BMP10 [7] = molecular target: T4, BMP10; assay: as above
# Description: as §1
# BMP6 [8] = molecular target: T5, BMP6; assay: as above
# Description: as §1
# activin AC = molecular target: T6, activin AC; assay: as above
# Description: as §1
# BMP7 = molecular target: T7, BMP7; assay: as above
# Description: as §1
# activin A [9] = molecular target: T2, activin A; assay: as above; remark: listed apart in the source
# Description: as §1
# activin AB = molecular target: T8, activin AB; assay: as above
# Description: as §1
# BMP10 [10] = molecular target: T4, BMP10; assay: SPR (Biacore)
# BMP6 [11] = molecular target: T5, BMP6; assay: SPR (Biacore)
# GDF8 = molecular target: T9, GDF8; assay: SPR (Biacore)
# T10 sequence (P27037 21-135): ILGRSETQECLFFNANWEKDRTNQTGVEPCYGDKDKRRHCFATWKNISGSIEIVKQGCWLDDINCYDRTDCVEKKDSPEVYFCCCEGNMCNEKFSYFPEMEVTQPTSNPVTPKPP
binder,measurement,setting,value
B1,Kd,[1],19 nM
same,binding result,ActRIIA-mFc,binds
"ALK4-Fc homodimer (Fc fusion, not shown: a dimerising Fc or GST) SGPRGVQALLCACTSCLQANYTCETDGACMVSIFNLDGMEHHVRTCIPKVELVPAGKPFYCLSSEDLRNTHCCYTDYCNRIDLRVPSGHLKEPEHPSMWGPVE",Kd,GDF11 [2],0.97 nM
same,koff,GDF11 [3],0.0048 s⁻¹
same,kon,GDF11 [3],5e+06 M⁻¹ s⁻¹
same,Kd,activin A [4],20 nM
same,koff,activin A [4],0.012 s⁻¹
same,kon,activin A [4],580000 M⁻¹ s⁻¹
same,binding result,activin B,no binding
same,Kd,GDF11 [5],0.97 nM
same,koff,GDF11 [6],0.0048 s⁻¹
same,kon,GDF11 [6],5e+06 M⁻¹ s⁻¹
same,binding result,BMP10 [7],no binding
same,binding result,BMP6 [8],no binding
same,binding result,activin AC,no binding
same,binding result,BMP7,no binding
same,Kd,activin A [9],20 nM
same,koff,activin A [9],0.012 s⁻¹
same,kon,activin A [9],580000 M⁻¹ s⁻¹
same,Kd,activin AB,2 nM
same,koff,activin AB,0.0036 s⁻¹
same,kon,activin AB,1.8e+06 M⁻¹ s⁻¹
ActRIIB(L79D 25-131)-hFc (Fc fusion) ETRECIYYNANWELERTNQSGLERCEGEQDKRLHCYASWRNSSGTIELVKKGCWDDDFNCYDRQECVATEENPQVYFCCCEGNFCNERFTHLPEAGGPEVTYEPPPTGGGTHTCPPCPAPELLGGPSVFLFPPKPKDTLMISRTPRVTCVVVDVSHEDPEVKFNWYVDGVEVHNAKTKPREEQYNSTYRVVSVLTVLHQDWLNGKEYKCKVSNKALPAPIEKTISKAKGQPREPQVYTLPPSREEMTKNQVSLTCLVKGFYPSDIAVEWESNGQPENNYKTTPPVLDSDGSFFLYSKLTVDKSRWQQGNVFSCSVMHEALHNHYTQKSLSLSPGK,binding result,BMP10 [10],binds
same,binding result,BMP6 [11],binds
same,binding result,GDF8,binds
